The supplement of paper PMC9170038

Columns and labels:
MS2 coat protein [1] = assay: apparent KD of MS2 coat protein, switch ON state; designed switch direction (-1 OFF switch, 1 ON switch): 1; higher = weaker reporter binding; settings: FMN input: 0 or 200 uM; Eterna round: R93 (includes R88 designs)
Summary of the method: (§1)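 Titration buffer: 100 mM Tris-HCl pH 7.5, 80 mM KCl, 4 mM MgCl2, without or with constant ligand. Designed RNA switches transcribed on-chip from Illumina sequencing clusters received SNAP-549-labelled MS2 coat protein in twofold steps from 0.7 or 1.5 nM to 3 µM. Apparent KD is the median per design of fits to normalised cluster binding curves.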

MS2 coat protein [2] = assay: apparent KD of MS2 coat protein, switch OFF state (with FMN for OFF switches, without FMN for ON switches); designed switch direction (-1 OFF switch, 1 ON switch): 1; higher = weaker reporter binding; settings: FMN input: 0 or 200 uM; Eterna round: R93 (includes R88 designs)
Summary of the method: as §1

| Sequence | apparent KD of MS2 coat protein (MS2 coat protein [1]) [nM] | apparent KD of MS2 coat protein (MS2 coat protein [2]) [nM] |
| --- | --- | --- |
| AUAUGCAUAGACAAGGAUAUCGGUCUAGAAACAUGAGGAUCACCCAUGUAAGUGAAAAUCUGUAAUGAGAAGGUGUUGUUGGGUU [Isan] | 75 | 89.4 |
| UAACGCGCAUGCAAGGAUAUGUGCAGAGCUACAUGAGGAUCACCCAUGUGGUUAUGCUAUUGAAAACAGAAGGUGCCCUCGCUCA [Ceties] | 22.4 | 16.8 |
| UGAAGACAUGAGGAUCACCCAUGUGGGAAUAUGGGAGGAUAUACAAAGACGAGAGUCAGAGUAGAAGGCCUAGGAG [salish99-ss1-97] | 55.1 | 103 |
| AAACCACAUGAGGAUCACCCAUGUAAAAAUAUGGGAGGAUAUGCGAAAAGAAACAAAGAAGCAGAAGGCCUAAAAA [75%, Ex sub1, 19] | 26.3 | 114 |
| AAUAAUUAUAUGGAGGAUAUCGGUAAUAAGACAUGAGGAUCACCCAUGUAAUAAGGUUAAAUAAACGAGAAGGCCAAGGGUGAAA [JR_SS002_Sub005] | 59.7 | 234 |
| AACAGGAAGAGAGAGGAUAUCCAAAGGAAAACAUGAGGAUCACCCAUGUAAAAGGUAGGAAAUUGGGAGAAGGCUCAAGAGAGAG [salish99-ss2-089] | 24.8 | 47.3 |
| AAAAACACAGUGCAGGAUAUGGUAAUAGUCACAUGAGGAUCACCCAUGUUCUUUUAUAAGAACGAUCAGAAGGGCGGUGAAAAAA [Mat - Same state - Malcolm Mod - D114] | 241 | 155 |
| GAAAAACAUGAGGAUCACCCAUGUAAUACAACAUCAGGAUAUUGAUUUUACUAUGUAUUGCAAGAAGGGAUGAAAG [Mat - Same State 1 - Hyphema mod - D100] | 57.2 | 42.6 |
| GAAAAACAUGAGGAUCACCCAUGUGAUAACAUGGGAGGAUAUACAAGGACGAUAGUCAAAGUAGAAGGCCUAAAAG [Garnet 61] | 289 | 47.9 |
| UGGAGACAUGAGGAUCACCCAUGUGAGAAGAGGCGAGGAUAUCGAAAGAAAGAAGAGAAACGAGAAGGCGCGAGGU [salish99-SS1-036] | 34.4 | 49.6 |
| GAAAUACAUGAGGAUCACCCAUGUUAGGUGGGUCAAGGAUAUUGAUAUAAAUAAAAAACUCGAGAAGGUGAAUAAA [JR_SS001_Sub201] | 229 | 179 |
| AUAAAACAUGAGGAUCACCCAUGUAGAAAUAUGGGAGGAUAUACGAAGACGAAAGUCGAAGUAGAAGGCCUAAAAG [Mat - Same State 1 - Meechl mod - D116] | 27.7 | 67.7 |
| AAAAGACAUGAGGAUCACCCAUGUAAAGACAUGAGAGGAUAUGCAUGGAAAACAUGCUGUGCAGAAGGCUCAUGUC [SS1 - 17] | 18.1 | 22.6 |
| GAUAGGAAGAGAGAGGAUAUCCAAAGGAAAACAUGAGGAUCACCCAUGUAAAAGGUAGGAAAUUGGGAGAAGGCUCAAGAGAGAG [salish99-ss2-075] | 11.6 | 31.9 |
| AGAAAUAAAAGACAGGAUAUCCUUAAGAAAACAUGAGGAUCACCCAUGUAAAAGAAAAUAAAAAGGGAGAAGGGUCAAAAUAAGA [Mat - Same State 2 - JL mod - D80] | 18 | 26.2 |
| GAAAAACAUGAGGAUCACCCAUGUGUAAACAUGGGAGGAUAUACGAAGACGUAAGUCAAAGUAGAAGGCCUAAAAG [Garnet 36] | 47.1 | 24.9 |
| AAAAAACAUGAGGAUCACCCAUGUGCAAAAUUCGCAGGAUAUUCCUCAAUUAAAUGAGAGGAAGAAGGGUGUAAAA [Nob's Hobby 25 - Jieux - Same State 1] | 27.4 | 130 |
| AUAAUACAUGAGGAUCACCCAUGUCAAGGCUAUCAAGGAUAUAGACAACGUAGCGGUUGACUAGAAGGUGAGAAAU [Onxeanis] | 124 | 78.8 |
| GAAGAACAUGAGGAUCACCCAUGUGAGAACAUGGGAGGAUAUACGAGGACGAAAGUCAAAGUAGAAGGCCUAAGAG [Garnet 87] | 104 | 29.8 |
| AAAAAACAUGAGGAUCACCCAUGUCUUCGGACGUGAGGAUAUGUACAGACUUCGGUCUGUACAGAAGGCACGAAAA [SS1 - 1035] | 22.7 | 114 |
| CCGAUGGUAUACUAGGAUAUGGGCGCCCUUACAUGAGGAUCACCCAUGUUAUCACAAAUCCGCGGCCAGAAGGAGUUCAUGGGAG [Ustiririra] | 62.8 | 151 |
| AACAAUCUAUCUGAGGAUAUCAUGACAAAGACAUGAGGAUCACCCAUGUCCAGGAAAACUGGUUAUGAGAAGGCAGAUAGAUUGA [SS2: 1112] | 9.7 | 13.2 |

| Sequence | apparent KD of MS2 coat protein (MS2 coat protein [1]) [nM] | apparent KD of MS2 coat protein (MS2 coat protein [2]) [nM] |
| --- | --- | --- |
| CGGCUACAUGAGGAUCACCCAUGUCAGCCGAGGGCAGGAUAUGUGGUUCAUUCUCAAGCAACAGAAGGGUCAAAAG [Istiacedi] | 16.9 | 18.7 |
| AAGAAACAUGAGGAUCACCCAUGUAAGAUAAACACAGGAUAUGCGAAAAGAAACAAAUAAGCAGAAGGGUGAAGAA [Mat - Same State 1 - Tesla mod - 64] | 16.3 | 23 |
| AAAACACAUGAGGAUCACCCAUGUGAAAACAUGAGAGGAUAUGCAUGGAAAACAUGCUAUGCAGAAGGCUCAUGUG [SS1 - 8] | 16.5 | 23.2 |
| AUGAAAGUAACACAGGAUAUCGAGGAUACAACAUGAGGAUCACCCAUGUACAUACGAACGUAUAACGAGAAGGGUGGAUGAUCUUC [ss2] | 140 | 62.8 |
| AAGAAACAUGAGGAUCACCCAUGUGAUAAUAUGGGAGGAUAUACAAAGACGAAAGACGAAGUAGAAGGCCUAUGAA [Garnet 44] | 49 | 124 |
| AGCACGUGAUUGGAGGAUAUGUAGUAAGCAACAUGAGGAUCACCCAUGUCUGAGGCUGAAAAGCAGCAGAAGGCCGAUACAACCA [SS2-1.5] | 18.2 | 19.2 |
| UGUCUACCUGAUGAGGAUAUCCCACAGGCGACAUGAGGAUCACCCAUGUAAAGUAAGCGUAGGCGGGAGAAGGCAUGGCGGAGAC [Larearre] | 14.5 | 30.7 |
| AUAAAACAUGAGGAUCACCCAUGUCCGACAAAUCAAGGAUAUGAUAGCCAAACCAGGCCGUUAGAAGGUGAAAGAA [Edgeza] | 276 | 147 |
| GAAAAACAUGAGGAUCACCCAUGUAGAAAUAUGGGAGGAUAUACAAAGUCGAAAGACAAAGUAGAAGGCCUAAAAG [Mat - Same State 1 - Eli mod - D2] | 24.6 | 67.1 |
| GCCGGUUAUGAGCAGGAUAUGUCACCGCUAACAUGAGGAUCACCCAUGUGAGCAAAAUCGAGGUCACAGAAGGGUUCCGGCAAAA [Disoerce] | 17.8 | 41.9 |
| AAAAAACAUGAGGAUCACCCAUGUGAAGAUAUGGAAGGAUAUACAAAGACGAAAGUCAAAGUAGAAGGUCUAAAAG [76%, Meechl 3] | 17.1 | 17.7 |
| AGAAAUAAAAGAGAGGAUAUCCAAAAGAAAACAUGAGGAUCACCCAUGUAAAAGAAAAUAAAGUGGGAGAAGGCUCAAAAUAAGA [Jieux modified] | 16.4 | 129 |
| AAAAAACAUGAGGAUCACCCAUGUCGAAAGACGUGAGGAUAUGUACAGACUUCGGUCUGUACAGAAGGCACAAAAA [SS1 - 1032] | 24.6 | 208 |
| AAAAAACAUGAGGAUCACCCAUGUAAAAAUAUGGGAGGAUAUACAAACACGAAAGUGAAAGUAGAAGGCCUAAAAA [SS! MT 17] | 19 | 85.3 |
| AGGAAACAUGAGGAUCACCCAUGUAAAAAUAUGGGAGGAUAUUGAAAGACGAAAGUCAAACAAGAAGGCCUAAAAG [Garnet 21] | 24 | 128 |
| AAAAGACAUGAGGAUCACCCAUGUCAAGACAUAGGAGGAUAUGUCAUGAAAAAAGACUUGACAGAAGGCCUUUGUC [SS1 - 51] | 16.7 | 17.4 |
| AGAAAUAAAAGGCAGGAUAUCCAAAAGAAAACAUGAGGAUCACCCAUGUAAAAGAAAAAAAAAUGGGAGAAGGGCCAAAUAAAGA [Mat - Same State 2 - Eli mod - D90] | 20.7 | 21.4 |
| GGGAGGAAGAGAGAGGAUAUCCAAAGGAAAACAUGAGGAUCACCCAUGUAAAAGGUAGGAAAUUGGGAGAAGGCUCAAAAGAGUG [salish99-ss2-043] | 13.7 | 22.2 |
| AGAAAUAAAAGAGAGGAUAUCCAAAAGAAAACAUGAGGAUCACCCAUGUAAAAGAAAAUAAAAUGGGAGAAGGCUCAAUAAAAGA [Modifying Jieux] | 17.9 | 42 |
| UGAGGACAUGAGGAUCACCCAUGUAGGCCACAAUCAGGAUAUGCAUUAAGGUACCUAAGAGUAGAAGGGAUUCGAG [SameState_Neo] | 34.9 | 30.8 |
| GCAAAACAUGAGGAUCACCCAUGUGAAAAGAAUGUAGGAUAUGGGCUCAGAAAUAGCAGCCCAGAAGGGCGAAGAA [Xequamara] | 21.9 | 24.8 |
| AUAAUAAUAAGGUAGGAUAUACUAAAGUAAACAUGAGGAUCACCCAUGUAAAGAAAAAAACUCAUGUAGAAGGGCCAGAAAUAAA [moonwalk 3] | 53.2 | 62.3 |
